This test concerns the target recombinant biotin-FLAG-tagged human ATM (human, UniProt Q13315 1-3056, biotin). In words: pull-down.

Sequence of recombinant biotin-FLAG-tagged human ATM (Q13315 whole entry): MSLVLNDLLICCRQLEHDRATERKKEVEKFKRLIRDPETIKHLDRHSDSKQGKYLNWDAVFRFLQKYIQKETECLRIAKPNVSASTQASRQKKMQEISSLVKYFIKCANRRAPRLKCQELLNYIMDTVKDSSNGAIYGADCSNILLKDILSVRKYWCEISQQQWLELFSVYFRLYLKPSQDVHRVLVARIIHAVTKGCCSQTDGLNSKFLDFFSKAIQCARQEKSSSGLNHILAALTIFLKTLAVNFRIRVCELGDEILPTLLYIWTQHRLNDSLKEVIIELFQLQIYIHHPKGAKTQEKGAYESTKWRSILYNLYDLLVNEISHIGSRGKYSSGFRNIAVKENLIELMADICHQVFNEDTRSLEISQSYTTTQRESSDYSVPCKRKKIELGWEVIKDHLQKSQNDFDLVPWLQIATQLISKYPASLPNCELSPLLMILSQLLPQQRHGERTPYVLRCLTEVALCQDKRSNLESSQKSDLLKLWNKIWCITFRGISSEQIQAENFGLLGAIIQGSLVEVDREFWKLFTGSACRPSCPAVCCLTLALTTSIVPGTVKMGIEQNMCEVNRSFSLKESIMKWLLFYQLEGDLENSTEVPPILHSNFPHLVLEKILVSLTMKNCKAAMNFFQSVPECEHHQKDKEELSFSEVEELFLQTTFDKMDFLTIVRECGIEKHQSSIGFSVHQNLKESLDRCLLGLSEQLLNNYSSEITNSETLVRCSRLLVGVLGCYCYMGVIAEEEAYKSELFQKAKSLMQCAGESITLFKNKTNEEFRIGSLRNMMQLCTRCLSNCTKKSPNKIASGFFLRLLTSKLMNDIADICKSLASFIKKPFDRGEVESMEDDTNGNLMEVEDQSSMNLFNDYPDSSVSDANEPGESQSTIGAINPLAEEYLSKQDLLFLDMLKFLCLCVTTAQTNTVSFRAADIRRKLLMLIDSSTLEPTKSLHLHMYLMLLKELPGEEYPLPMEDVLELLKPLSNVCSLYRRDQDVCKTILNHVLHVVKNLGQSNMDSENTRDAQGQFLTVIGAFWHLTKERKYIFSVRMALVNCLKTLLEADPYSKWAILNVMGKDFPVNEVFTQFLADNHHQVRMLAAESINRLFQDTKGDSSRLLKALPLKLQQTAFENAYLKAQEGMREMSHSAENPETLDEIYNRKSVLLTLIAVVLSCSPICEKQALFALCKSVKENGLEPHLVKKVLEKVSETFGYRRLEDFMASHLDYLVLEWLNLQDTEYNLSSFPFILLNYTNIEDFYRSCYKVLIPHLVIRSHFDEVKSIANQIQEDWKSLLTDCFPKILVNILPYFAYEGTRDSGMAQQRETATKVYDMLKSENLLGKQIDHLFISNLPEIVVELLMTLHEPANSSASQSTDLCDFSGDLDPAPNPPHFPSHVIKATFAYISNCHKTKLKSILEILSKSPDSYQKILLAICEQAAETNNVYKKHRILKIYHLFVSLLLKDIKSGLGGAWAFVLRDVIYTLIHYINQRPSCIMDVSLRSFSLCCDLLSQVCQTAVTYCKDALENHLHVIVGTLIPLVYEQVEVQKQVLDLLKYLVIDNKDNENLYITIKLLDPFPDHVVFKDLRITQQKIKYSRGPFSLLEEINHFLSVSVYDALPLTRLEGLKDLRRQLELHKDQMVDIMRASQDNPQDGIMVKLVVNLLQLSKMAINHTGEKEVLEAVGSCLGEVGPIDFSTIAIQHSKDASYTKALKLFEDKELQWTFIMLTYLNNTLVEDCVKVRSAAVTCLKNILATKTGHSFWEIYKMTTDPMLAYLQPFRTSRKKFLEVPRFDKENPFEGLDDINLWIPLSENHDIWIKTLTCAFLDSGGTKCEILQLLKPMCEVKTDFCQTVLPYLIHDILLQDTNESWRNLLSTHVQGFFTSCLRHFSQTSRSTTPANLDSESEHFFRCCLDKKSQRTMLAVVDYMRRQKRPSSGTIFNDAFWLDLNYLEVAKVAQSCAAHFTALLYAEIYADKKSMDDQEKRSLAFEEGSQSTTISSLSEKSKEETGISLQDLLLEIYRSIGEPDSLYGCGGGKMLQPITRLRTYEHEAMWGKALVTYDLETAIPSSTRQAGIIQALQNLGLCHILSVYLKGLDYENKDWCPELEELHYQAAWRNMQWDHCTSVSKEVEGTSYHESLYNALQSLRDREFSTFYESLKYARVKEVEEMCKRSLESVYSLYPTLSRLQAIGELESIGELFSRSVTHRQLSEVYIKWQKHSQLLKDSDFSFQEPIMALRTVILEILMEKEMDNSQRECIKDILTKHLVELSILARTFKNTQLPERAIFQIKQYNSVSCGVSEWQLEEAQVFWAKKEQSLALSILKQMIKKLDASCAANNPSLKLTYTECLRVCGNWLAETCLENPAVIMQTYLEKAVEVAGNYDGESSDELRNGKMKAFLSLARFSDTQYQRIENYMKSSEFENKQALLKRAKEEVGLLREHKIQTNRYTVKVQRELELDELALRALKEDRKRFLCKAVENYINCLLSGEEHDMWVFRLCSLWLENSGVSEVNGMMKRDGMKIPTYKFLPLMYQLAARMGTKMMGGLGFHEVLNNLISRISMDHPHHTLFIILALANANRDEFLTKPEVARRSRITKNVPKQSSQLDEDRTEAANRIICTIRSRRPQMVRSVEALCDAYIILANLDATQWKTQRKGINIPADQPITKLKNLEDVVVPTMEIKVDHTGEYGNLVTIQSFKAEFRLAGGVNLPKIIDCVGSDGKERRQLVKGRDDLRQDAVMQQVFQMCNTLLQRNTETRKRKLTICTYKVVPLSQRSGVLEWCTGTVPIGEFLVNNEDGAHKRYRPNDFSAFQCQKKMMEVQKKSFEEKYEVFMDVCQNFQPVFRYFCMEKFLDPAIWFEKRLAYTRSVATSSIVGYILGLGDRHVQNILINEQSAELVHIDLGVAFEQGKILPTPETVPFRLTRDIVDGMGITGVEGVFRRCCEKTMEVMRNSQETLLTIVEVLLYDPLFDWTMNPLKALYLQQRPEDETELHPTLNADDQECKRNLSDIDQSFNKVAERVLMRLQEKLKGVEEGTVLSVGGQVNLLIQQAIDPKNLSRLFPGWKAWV

B1: MBP-tagged human MRI (natural protein, UniProt Q9BWK5 1-157, looked up)
chain: METLQSETKTRVLPSWLTAQVATKNVAPMKAPKRMRMAAVPVAAARLPATRTVYCMNEAEIVDVALGILIESRKQEKACEQPALAGADNPEHSPPCSVSPHTSSGSSSEEEDSGKQALAPGLSPSQRPGGSSSACSRSPEEEEEEDVLKYVREIFFS
Regarding B1, the binding result is listed as “binds”.
